Assay results taken from a protein production outcome set (Wang et al. 2014).

Experiment: label from the status in PepcDB records

Row | Sequence | protein production
1 | MRIIAITEKVIKELFRDKRTLAMMFLAPILIMFLMNVMFSANSNTKVKIGTINVNTKVVSNLDNIKHIQVRSFKFNSSAKKALKSNKIDALISEDNKSYTVFYANTDSSKTTLTRQAFKTAVNTMNSKELISQVKILANKNPKLAQSLQTRSKYIKEKYNYGNKNTGFFAKMIPILMGFMVFFFVFLISGMALLKERTSGTLDRLLATPVKRSDIVFGYMLSYGILAIIQTIVIVLSTIWLLDIQVVGSIFSVIIVNFILALVALSLGILMSTLAKSEFQMMQFIPLIIMPQLFFSGIIPLENMASWAQTVGKILPLSYSGDALTKIIMYGQGLPNVSSNLLVLLLFLIILTIANIFGLKRYRKV | failed
2 | MIRPTVQENFSRYADCIAACNAAAAACLKCAAACLEEPDTRKMTRCIALDMDCAGIANLAASYMLRNSEFAPLVCEDCAEVCKWCKEECERYDHWHCQECAKACAACMEMCLKMTA | failed
3 | MAAPELLIPWADFLLCVALIAVAGNRLSRYGDVIAEKTGLSGSWIGLILLATATSLPELITGAAAVTAAGAPDIAAGDVLGSCVFNLVILVALDFLHRHESVYRRASQGHLLSAGFGIILLGLVGVNLLLADKHIVPTLGWVGLYSPLLGLLYLFSMRAVFLYEREQMAAFTEDMTEQYPGIRLRRAVMWYVAVAAVVVGAGVWLPSIGTTLAEVMGWNKSFVGTLFVAAATSMPELSVTIGAVRIRAVDMAIANLLGSNLFDLCILAIDDLAYLPGPLLSHVSSVHALSAFSAMVMTGIFIVGLLYRAGTRLFKTVGWVSIALLLVYLGNAYVLYLYDK | failed
4 | MSLSDAVNKHPKSPNPQLCAVTLLGNLVATPDIRYRANPATAVTEIVLATSSKWLDKITNKYKEWTSYHHVKVEGELVELALLNANKGDIILLHGYLSNIKPKSTDKSTNHLGIVHANFVQKFEKGYTQAINQIHCSAQLTSKPKLMLTEQNKNITQANIVINQHIYNTDKQAWQTISVERAIHVWGKQAQYLAEHGDIGDELMLEGKLSYTSGVSKDQFIEVKNVHLFKGTLEHHHHHH | not failed
5 | MVANLPALFSLGVFVGVILLIMSEKIHLTIAAFLGALILVFTHVITLKEGIDYISQSYATLALFFGVMVLVRSFEPTKIFEYLATQMVLLAKGSGKLLMLGVIAITTPICAVLPNATTVMLLAPLIPPLAQEIGVDFVPILILMVFVANSAGLLTLVGDPATFIVGDAINISFNDYLFKLSFMGVLAIVSIVVITPFLFRHIWRSRFTHLEDLPHPQINHPKVLMAGGVIITLVLIFFVIGESLPVPIPPASVALMGACLALLLASQSKIDTVHNILRDVDWSTLIFFMSIFVIIGSLEKTGVTASLAQLLAVVVGQNIAFGAIVLVFTVGLLSSVVPNIPLVVAMVPLLKQYVVNIGFAGPEILGANFDGQLPAEVLPLFYAMMFGATLGGNGTLVGASSNIVAAGISEQHGRPISFHRFLRYGLPVMAVQLVVAALFVAWLMFTQQG | failed
6 | MSQQPESDRTEGDLRNTGMELKHERTWDYELDRIVDAVEERDAMKVGLQFPEGLKRRAGRVADDLRRLLPDETTVLLSGQPCYGACDLDTYMMRRTDVFVHFGHSPMKESDKIIYVPLFSNVEVTPIMEEARAELAAPEEDDAVGLVTTAQHMNRFDEMQAWLEERGYTVETRRGDERLTHEGQVLGCNYASADVDADQILYVGGGKFHPLGLAMEHPDKKVIIADPVNNAVHVADTEQFMKQRYAAVHKAMDAEEWGVIFCTKIGQGRWDTAEEIVEANDNAYLITMDEVTPDRLTNFGFDAYVNTGCPRITTDDGPQFKQPMLTPGEYKIAIGEKPMDSLSFDTFHGTW | failed
7 | MASLWFGLIASSALVIGAFVGVRFELPKRLLAILLSFAAGSLITALAFELFEDAYEQGGIVRAALGLLAGAIVFTALSALLDRWAQPGGKSTTKAADEIQGSPKLDTDAAASDKAATSASTRGAAGMALLAAVTLDGVPENLALGISLGEGSGGLALLAAIFVSNLPEALVGASSMKSQGRKAGPIMLLWSVCAVLLVAAVVLGAGPLSSAEPATISLPLAFAAGAVIASLADTLMPEAYEHGGPAVALSTAAGFVLSFTLSLA | failed
8 | MDKLNAISIFCKVIETQSFTLAAKQQNISVAMASKLVSQLEEHLKTRLLQRTTRKIMPTEAGMMYYQRCQGILLDLDEADSSITQLTSSLQGNLLISVPRDFGLLFIAPNLPTFMAKHPHLHIEVEFNDKKIDLLSEGYDLALRIGYMEDSSLVSRKIGTTTVHFAASPNYLETNGIPQTPDDLEHHNGLLYKNAMNQVNWVGSRINQTQRFKIQSKVVSNSGFALLNMAKAGLGIANLPKFILGRAFEKGELIEILPEYKQQKLEIHVVYPNRRHLPIKVTGISLNF | failed
9 | MGRKRGNAIMEKTKIDIISGFLGAGKTTLIKKLLKDAFQGEQVVLIENEFGEIGIDGGFLKEAGIQIREMNSGCICCSLVGDFGASLKEVISKYHPDRILIEPSGVGKLSDVIKAVQGVEEETGLVLNSYTTVVDAKKCKMYMRNFGEFFNNQVEYAGAIIMSRTDIVDEAKAQASLELLREINSKAAIITTPIEKLEGKKLLEVMEHPVSLADELMEEEEVCPECGHVHEHGEHHHHDHDEECGCGHDHDHEEHEHHHHDHDEECGCGHDHAHEEHEHHHHDHDHECGCGHDHHDHHHHHADEVFTSWGRETIKKYTKENLEKMLEALSASDEYGIILRAKGMLPAEDGTWIYFDMVPEETEIREGAPEYTGRLCVIGSKLNEDKLAELFGL | failed
10 | MKTTKIVIASLVSLTMVSNPLLTFAATNDVIDNTTEITTDKETSSTQPTIKNTLKAGQTQSFNDWFPDDNFASEVAAAFEMQATDTISEEQLATLTSLDCHNSSITDMTGIEKLTGLTKLICTSNNITTLDLSQNTNLTYLACDSNKLTNLDVTPLTKLTYLNCDTNKLTKLDVSQNPLLTYLNCARNTLTEIDVSHNTQLTELDCHLNKKITKLDVTPQTQLTTLDCSFNKITELDVSQNKLLNRLNCDTNNITKLDLNQNIQLTFLDCSSNKLTEIDVTPLTQLTYFDCSVNPLTELDVSTLSKLTTLHCIQTDLLEIDLTHNTQLIYFQAEGCRKIKELDVTHNTQLYLLDCQAAGITELDLSQNPKLVYLYLNNTELTELDVSHNTKLKSLSCVNAHIQDFSSVGKIPALNNNFEAEGQTITMPKETLTNNSLTIAVSPDLLDQFGNPMNIEPGDGGVYDQATNTITWENLSTDNPAVTYTFTSENGAIVGTVTTPFEAPQPIKGEDVTVHYLDDKGEKLADDEVLSGNLDDPYTSSAKDIPDYTLTTTPDNATGTFTTTSQSVTYVYTKNIVAAEPVTVNYVDDTGKTLSPSEILNGNVGDTYNATAKQIDGYTLSAEPTNATGQFTSSAQTVNYIYTKNPAPEKGVVEIHYVDEDNKQLNSTTEISGTIGDNYTTEPKTIEGYTLTTTPGNATGTFTTGSQTVTYVYTKNIEAAEPITVNYVDANGKTLAPSETLNGNVGDTYKATAKQIDGYTLSAEPTNATGQFTSSAQTVNYIYTKNTNTDQPLPTKKPTNTTPTKPSNLKTTEVKKASDTLPKTGDSAPWKSALLGVFLSSTALVIWKKKK | failed
11 | MSNEMYYVQASDPAILEKGECGGAVTALFKYLLDKGIVDGVLALKKGVDVYDAIPTFVTSSEDLLSTAGSLHCAPTMWGGIIKEYLQDAKIAVPVKPCDMRAIVELAKRAQINLDNVYMIGLNCGGTVPPKTAMEMIKLFYEVDPKDVVKEEIDKGKFIIVMNDGSHKEVKMHDLEDNGYGRRVNCQRCDEKIPRKADIAAGNWGVIGEDAGKYTFMEVCTEKGKQLLEDAEKDGYIKKKSPNPKGIEIRAKVESSMLKMGEDYKNKWLEEEYPTIEEWNRQWNKCIKCYGCRDVCPVCFCRECALNADYLDSGSIPPNPIMFQGVRMSHMAFSCVNCGQCEDVCPMEIPVARIFHKVQEKTRKELGYRPGVDDEAPPALGGSCPTQ | failed
12 | MTKSQIMDLSNFYQDTDYPSGRLIALLILSLGLTPAEIANLKKADFDTTFNILSIEKSQMKRILKLPEDLLPFLLESLEEDGDLVFEHNGKPYSRQWFFNQLTDFLNEKNEQQLTAQLLREQFILKQKENGKTMTELSRLLGLKTPITLERYYRLEHHHHHH | not failed
13 | MITTIPWKATQAQPNAFPERQALMPVWEGEAIPQAEWQQCWQQAAINVLKEDGLAYFHIPFCASHCIFCGFYRNAWKEDYSKVYTDKLIEELAYEASIRQGNGKIQAVYFGGGTPTALATEDLVRLIKACYQYLPLATDCEFTLEGRISHFDIEKARACVEAGVNRISIGVQTFNSAIRKRLGRKHSGEEAYAYLQALCELDAVIVADLIFGLPNQTDEVWANDINVASGLPLSGLDIYAFNNYPFLPINKMIEHGTLPPAASFEVQAQHYAYAVENLQQAGWTQVSNNHFAFPGRGERNRYNTLVKSNMPCLAFGSGAGGNFSGYSFQVDTTLQTYLDTPADKKALSYLSKQGPNKQLLGIVQHDLELGYLDIKLFRDNPKAMKLLMQWQQLSLLNIDANGIACLNISGRYWSPTLIRKLMLTLPTHDEKEHKMVKLSEQQLAELRQSLAENPGQILEMVAGMKQCSFEEVISCLPQEMITKTDGSRFVEIMQALATLEDAVTFIAHTADAIVEVTGKLPSGQIGRGFYNFDHTHEGGVHGHLRYENCAAIYLLERPFMGKHTVSLNFVNHQGGAMFKIFVGRDAERNLRQNQIDFMRQLIKG | failed
14 | MRHLKSGRKLNRHSSHRLALYRNQAKSLLTHGRITTTVPKAKELRGFVDHLIHLAKRGDLHARRLVLRDLQDVKLVRKLFDEIAPRYRDRQGGYTRVLKLAERRRGDGAPLALVELVE | not failed
15 | MSSATKSSPATGGYLHYATLAPWKTLLRTRAYPGSLAGGSEATEATVAMELAEDWLVESLRLYQDFHAFDLSGATRVLEWVGEKGVFVAGYESLKKNEILHLILPLRLSVKENQGLYPERDFKVRHGGFSDRAVFDLKHVPDTRLLVTSGLPGCYIQVWQIREDNDVIEAVSTIDVQDKEESLWPRVSIFCSAAPGILHGARLSGLRTVDVESRKITYSSDTTDSESLSSLQVLDADTFAFCGTSGRLGLVDTRQKWAPLETVSPRAGSSGERWCAEVRSKGQGPGPCIASLGSDGQLCLLDPRNLRDPVSSAQCPVFKSSPDPELLRVTWAPGLDNCLAISGFDGTVQIYDVTSWDGKKTQVEALFIHKGHIFLDGNEVESAPLVTTHTWHPSKPRTLLSAASDAALHVWDWVDLQAS | failed
16 | TIAFIVNKNLLHGSEIPKSWADLKTGKYKVSIGDVSTAAQAANGVLAASFAMKGDESNIEPGLALFTDLAKQKRLSLANPTIQTIEKGEIEVGVVWDFNGLSYRTKMAKPDDYVVLIPSDGSVISGYTTIINKYAKHPNAAKLAREYTFSDAGQ | failed
17 | FFKGAASSVLELTEAELVTAEAVRSVWQRILPKVLEVEDSTDFFKSGAASVDVVRLVEEVKELCDGLELENEDVYMASTFGDFIQLLVRKLRGDDEE | not failed
18 | MGGGRQILHTLEQDVYFSHAHRVEIPASVTAHLFYQHFGYRPKPGGIYPDDEGLYRLEKFPHESFH | failed
19 | MADQAPRPAREFVVEADGGSRGNPGPAGYGAVVLDPVTGEALVEAAEYLGVVTNNVAEYRGLLAGLRAAAELDPDATVHVRMDSKLVVEQMSGRWKIKHPDMKPLAAEAARVFPPGRVTYEWIPRASNKHADRLANEAMDAGARGEAWSPSDSTAELDAAAADRAAPAGRTAGSRRTGAASAVAPAGTEGGDGGEPAPDGGGAAAGEPLARAGRDRVDAASLGAGTRAATSTGASATGTSGTGASATGTSGTGASATGAPGLGVAAETSGEADVRAAKVVASPGWGPPDMGAPATFVLLRHGETPLTPQKRFSGSGGSDPSLSPVGREQAERVAASLARRGTIEAVVASPLARTRETAGIVAARLGLEVAIEEGLRETDFGAWEGLTFGEVRERHPADLDAWLASPDAEPTGGGESFAATGTRIAATRDRLVAAYAGRTVLLVSHVTPIKTFVRLALGAPPESLFRMELSAASLSAVAYYADGGASVRLFNETSHLR | failed
20 | MARRSICEERRQQAGAGQPRGRCSDWQRRQRTLRPDATPMPADGRPRCSCLFSLLLSDPDLWKSWMSSQTAAERELAELLVESLNLEDVQPADIDPEAPLFNTGLGLDSIDALELALAISKRYGFQLRSDNDENRRIFASLRALSAHVQANKTV | failed
